B1: HDV Ribozyme (parent)
chain: GGCCGGCAUGGUCCCAGCCUCCUCGCUGGCGCCGGCUGGGCAACAUUCCGAGGGGACCGUCCCCUCGGUAAUGGCGAAUGGGACCCA

Variants of: B1
Assay: self-cleavage, relative activity (ratio to wild type); higher = more cleavage; co-transcriptional

In order of falling self-cleavage:
1. GGCCGGCAAGGUCCCAGCCUCCUCGCUGGCGCCGGCUGGGCAACAUUCCGAGUGGACCGUCCCCUCGGUAAUGGCGAAUGGGACCCA  1.28
2. GGCCGGCAUGGUCCCGGCCUCCUCGCUGGCGCCGGCUGGACAACAUUCCGAGGGGACCGUCCCCUCGGUAAUGGCGAAUGGGACCCA  1.13
3. GGCCGGCAUGGUCCCAGCCUCCUCGCUGGCGCCGGCUGGGCAACAUUCCGAGGGGACCGUCCACUCGGCAAUGGCGAAUGGGACCCA  1.12
4. GGCCGGCAUGGUCCCAGCCUCCUCGCUGGCGCCGGCUGGGCAACAUUGCGAGGGGACCUUCCCCUCGGUAAUGGCGAAUGGGACCCA  1.07
5. GGCCGGCAUGGUCUCAGCCUCCUCGCUGGCGCCGGCUGGGCAACAUUCCGAGGGGAACGUCCCCUCGGUAAUGGCGAAUGGGACCCA  1.07
6. GGCCGGCAUGGUCCCAGCCUCCUCGCUGGCGCCGGCUGGGCAACAUUCCGAGGUGACCGUACCCUCGGUAAUGGCGAAUGGGACCCA  1.04
7. GGCCGGCAUGGUCCCAGCCUCCUCGCUGGCGCCGGCUGGGCAACAUUCUGAGGGGGCCGUCCCCUCGGUAAUGGCGAAUGGGACCCA  1.04
8. GGCCGGCAUGGUCCCAGCCUCCUCGCUGGCGCCGGCUGGGCAACAUUCCGAGGGGACCGGCCCCUCGGAAAUGGCGAAUGGGACCCA  0.965
9. GGCCGGCGUGGUCCCAGCCUCCUCGCUGGCGCCGGCUGGGCAACAUUCCGAGGAGACCGUCCCCUCGGUAAUGGCGAAUGGGACCCA  0.877
10. GGCCGGCAUGGUCCCAGCCUCCUCGCUGGCGCCGGCUGGGCAACAUUCCGAGGGGACCGUCCCCUCGGUUAUGGCGAAAGGGACCCA  0.831
11. GGCCGGCAUCGUCCCAGCCUCCUCGCUGGCGCCGGCUGGGCAACGUUCCGAGGGGACCGUCCCCUCGGUAAUGGCGAAUGGGACCCA  0.791
12. GGCCGGCAUGGUCCCAGCCUCCUCGCUGGCGCCGGCUGGGCAACAUGCCGAGGGGACCGUCCCCUCGGCAAUGGCGAAUGGGACCCA  0.727
13. GGCCGGCAUGGUCCCGGCCUCCUCGCUGGCGCCGGCUGGUCAACAUUCCGAGGGGACCGUCCCCUCGGUAAUGGCGAAUGGGACCCA  0.719
14. GGCCGGCAUGGUCGCAGCCUCCCCGCUGGCGCCGGCUGGGCAACAUUCCGAGGGGACCGUCCCCUCGGUAAUGGCGAAUGGGACCCA  0.712
15. GGCCGGCAUUGUCCCAGCCUCCUCGCUGGCGCCGGCUGGGCAACAUUCCGAGUGGACCGUCCCCUCGGUAAUGGCGAAUGGGACCCA  0.699
16. GGCCGGCAUGGGCCCAGCCUCCUCGCUGGCGCCGGCUGGGCAACAUUCCGAGGGGACCGUCCCCUCGGUAAUGGCGAAUGCGACCCA  0.665
17. GGCCGGCAUGGUUCCAGCCUCCUCGCUGGCGCCGGCUGGGCAACAUUCCGAGGGGACGGUCCCCUCGGUAAUGGCGAAUGGGACCCA  0.554
18. GGCCGGCAUGGUCCCAGCCUCCUCGCUGGCGCCGGCUGGGCAACAUUGCGAGGGGACCGUCCCCGCGGUAAUGGCGAAUGGGACCCA  0.504
19. GGCCGGCAUGGUCCCAGCCUCCUCGCUGGCGCCGGCUGGGCUACAUUCCGAGGGGACCGUACCCUCGGUAAUGGCGAAUGGGACCCA  0.47
20. GGCCGGCAUGGUUCCAGCCUCCUCGCUGGCGCCGGCUGGGCAACGUUCCGAGGGGACCGUCCCCUCGGUAAUGGCGAAUGGGACCCA  0.465
21. UGCCGGCAUGGUCCCAGCCUCCUCGCUGGCGCCGGCUGGGCAACAUUCCGAGGGGACCGUCCCUUCGGUAAUGGCGAAUGGGACCCA  0.451
22. GGCCGGCAUGGUCCCAGCCUCCUCGCUGGCGCCGGCUGGGCAACAUUCCGAGGGGACCGUCCCCUCGGUGAUGGCGUAUGGGACCCA  0.426
23. GGCCGGCAUGGUCCCAGCCUCAUCGCUGGCGCCGGCUGGGCAACAUUCCGAGGGGACCGCCCCCUCGGUAAUGGCGAAUGGGACCCA  0.424
24. GGCCGGCAUGGUCCCAGCCUCCUCGCUGGAGCCGGCUGGGCAACUUUCCGAGGGGACCGUCCCCUCGGUAAUGGCGAAUGGGACCCA  0.375
25. AGCCGGCAUGGUCCCAGCCUCCUCGCUGGCGCCGGCUGGGCAACAUUCCGAGGGGACCGUCCCCUCGGGAAUGGCGAAUGGGACCCA  0.369
26. GGCCGGCAUGGUCCCAGCCUCCUCGCAGGCGCCGGCUGAGCAACAUUCCGAGGGGACCGUCCCCUCGGUAAUGGCGAAUGGGACCCA  0.356
27. UGCCGGCAUGGUCCCAGCCUCCUCGCUGGCGCCGGCUGGGCAACAUUCCGAGGGGACCGUCCCCUCGGUAAUGGCGAAUGGGACCCG  0.332
28. GGCCGGCAUGGUCCCCGCCUCCUCGCUGGCGCCGGCUGGGCAACUUUCCGAGGGGACCGUCCCCUCGGUAAUGGCGAAUGGGACCCA  0.332
29. GGCCGGCAUGGUCCCAGCCUCCUCGCUGGCGCCGGCUGGGCAACAUUCUGAGGGGACCGUCCCCUCGGUAAUGGCGUAUGGGACCCA  0.297
30. GGCCGGCAUGGUCCCAGCCUCCUCGCUGGCGCCGGCUGGGCAACAGUCCGAGGGGACCGUCCGCUCGGUAAUGGCGAAUGGGACCCA  0.293
31. GGCCGGCAUGGUCCCAGCCGCCUCGCUGGCGCCGGCUGGGCAACAUUCCGAGGGGACCGUCCCCUCGGUAAUGGCGAAUGGGACCGA  0.287
32. GGCCGGCAUGGUCCCAGCCUCCUCGCUGGCGCCGGCUGGGCAACAUUCCGAGGGGACCGUCCCCUCGUUAAAGGCGAAUGGGACCCA  0.277
33. GGCCGGCAUGGUCCCAGCCUCCUCGCUGGCGCCGGCUGGGCAACAUUCCGAGGGGAGCGUCCCCUCGGUAAUGGUGAAUGGGACCCA  0.271
34. GGCCGGCAUGGUCCCAGCCUCCUCGCUGGCGCCGGCUGUGCAAUAUUCCGAGGGGACCGUCCCCUCGGUAAUGGCGAAUGGGACCCA  0.211
35. GGCCGGCAUGGUCCCAGCCUCCUCGCUGGCGACGGCUGGGCAACAUUCCGAGGGGACCGUCCCCUCAGUAAUGGCGAAUGGGACCCA  0.211
36. GGCCGGCAUGGUCCCAGCCUCCUCGCUGGCGCCGGCUGGGCAACAUUCCGAGGGGACCGUCCUCUCGGUAAUGCCGAAUGGGACCCA  0.201
37. GGCCGGCUUGGUCCCAGCCUCCUCGCUGGCGCCGGCAGGGCAACAUUCCGAGGGGACCGUCCCCUCGGUAAUGGCGAAUGGGACCCA  0.201
38. GGCCGGCAUGGUCCCAGCCUCCUCGCUGGCGCGGGCUGGGCAACAUUCCGAGGGGACGGUCCCCUCGGUAAUGGCGAAUGGGACCCA  0.185
39. GGCCGGCAUGGUCCCAGCCUCCUCGCUGGCGCCGGCUGGGCAACAUUCCGAGGGGACCGUCCCCUCGGUAAUGGCGAAUUGGUCCCA  0.181
40. GGCCGGCAUGGUCCCAGCCUCCUCGCUGGCGCCGGCUGGGCAACAUUCCGUGGGGACCGUCCCCUCGGUAAUGGUGAAUGGGACCCA  0.177
41. GGCCGGCAUGGUCCCAGCCUCCUCGCUGGCGCCGGCUGGGCAACAUUCCGAGGGGACCGUCCCCUUGGUAAUGGAGAAUGGGACCCA  0.176
42. CGCCGGCAUGGUCCCAGCCUCCUCGCUGGCGCCGGCUGGGCAACAUUCCGAGGGGUCCGUCCCCUCGGUAAUGGCGAAUGGGACCCA  0.17
43. GGCCGGCAUGGACCCAGCCUCCUCGCUGGCGCCGGCUGGGCAAGAUUCCGAGGGGACCGUCCCCUCGGUAAUGGCGAAUGGGACCCA  0.166
44. GGCCUGCAUGGUCCCAGCCUCCUCGCUGGCGCCGACUGGGCAACAUUCCGAGGGGACCGUCCCCUCGGUAAUGGCGAAUGGGACCCA  0.156
45. GGCCGGCAUGGUCCCAGCUUCCUCGCUGGCGCCGGCUGGGCAACAUUCCGAGGGGACCGUCCCCUCGGUAAUGGCGAAUGGGACCCA  0.152
46. GGCCGGCAUGGUCCCAGCCUCCUCGCUGGCCCCGGCUGGGCAACAUUCCGAGGGGACCGUCCCAUCGGUAAUGGCGAAUGGGACCCA  0.148
47. GGCCGGCAUGGUCCCAGCCUCCUCGCUGGCGCCAGCUGGGCAACAUUCCGAUGGGACCGUCCCCUCGGUAAUGGCGAAUGGGACCCA  0.143
48. AGCCGGCAUGGUCCCAGCCUCCUCGCUGGCGCCGGCUGGGCAACAUUCCGAGGGGACCGUCCCAUCGGUAAUGGCGAAUGGGACCCA  0.131
49. GGCCGGCAUGGUCCCAGCCUCCUCGCUGACGCCGGCUGGGCAACAUUCCGAGUGGACCGUCCCCUCGGUAAUGGCGAAUGGGACCCA  0.114
50. GGCCGGCAUGGUCCCAGCCUCCUCGCUGGCGGCGGUUGGGCAACAUUCCGAGGGGACCGUCCCCUCGGUAAUGGCGAAUGGGACCCA  0.111
51. GGCCGGCAUGGUCCCAGCGUCCUCGCUGGCGCCGGCUGGGCCACAUUCCGAGGGGACCGUCCCCUCGGUAAUGGCGAAUGGGACCCA  0.0978
52. GGCCGGCAUGCUCCCAGCCUCCUCGCUGGCGCCGGCUGGGCAACAUUCCGAGGGGACCGUCCCCUCGGUAAUGGCGAAGGGGACCCA  0.0875
53. GGCCGGCAUGGUCCCAGCCUCCGCGCUGGCGCCGGCUGGGCAAAAUUCCGAGGGGACCGUCCCCUCGGUAAUGGCGAAUGGGACCCA  0.0791
54. GGCCGGCAUGGUCCCAGCUUCGUCGCUGGCGCCGGCUGGGCAACAUUCCGAGGGGACCGUCCCCUCGGUAAUGGCGAAUGGGACCCA  0.0692
55. GGCCGGCAUGGUCCCAGCCUCCUCGCUGGCGCCGGAUGGGCAACAUUCCGAGGGGACCGUCCCCUCGGUAAUGGCGAGUGGGACCCA  0.0652
56. GGCGGGCAUGGUCCCAGCCUCCUCGCUGGCGCCGGCUGGGCAACAAUCCGAGGGGACCGUCCCCUCGGUAAUGGCGAAUGGGACCCA  0.0573
57. GGCCGGCAUGGUCCCAUCCUCCUCGCUGGCGCCUGCUGGGCAACAUUCCGAGGGGACCGUCCCCUCGGUAAUGGCGAAUGGGACCCA  0.0554
58. GGCCAGCAUGGUCCCAGCCUCCUCGCUGGCGCCGGCUGGGCAACAUUCCGAGGGGACCGUCCCCUCGGUACUGGCGAAUGGGACCCA  0.0426
59. GGCCGGCAUGGUCCCAGCCUCCUCGCUGGCGCCGGCUAGGCAACAUUCCGAGGGGACCGUCCCCUCGGUAAUGGCGAAUGGUACCCA  0.0405
60. GUCCGGCAUGGUCCCAGCCUCCUCGCUGGCGCCGGCUAGGCAACAUUCCGAGGGGACCGUCCCCUCGGUAAUGGCGAAUGGGACCCA  0.032
61. GGCGGGCAUGGUCCCAGCCUUCUCGCUGGCGCCGGCUGGGCAACAUUCCGAGGGGACCGUCCCCUCGGUAAUGGCGAAUGGGACCCA  0
62. GGCCGGCAUGGUCCCAGCCUCCUCGCUGACGCCGGCUGGGCAACCUUCCGAGGGGACCGUCCCCUCGGUAAUGGCGAAUGGGACCCA  0
63. GGCCGGCAUGGUCCCAGCCUCCUCGCAGGCGCCGGCUAGGCAACAUUCCGAGGGGACCGUCCCCUCGGUAAUGGCGAAUGGGACCCA  0
64. GGCCGGCAUGGUCCCAGCCUCCUCGCCGGCGCCGCCUGGGCAACAUUCCGAGGGGACCGUCCCCUCGGUAAUGGCGAAUGGGACCCA  0

Source: the RNAGym collection of RNA variant scans (doi:10.7554/elife.80360)
